Assay: label from the status in PepcDB records
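Further: failed if final PepcDB status was selected cloned or expressed and not failed if soluble or beyond.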

Sequence	protein production
MYPEKEYEELIKKIKTKVKEELNKNSKANVSGLNLDTAKRLADAAVKKAGEMGVNVAVAVMDIHGNMILFNRMDDSVLAAIEVAPKKAYTSAALRIPSSEVLKGGFDKLVETMEGKIAAFGGGLPVRSNGIFLGALGVSGGTSEEDIKIAEYAVNAVFG	failed
MYQTIEGFLQSWTYETESTQKMLDVLTDESLSQEIAPGHWTLGRVAWHIVTAIPVILSGTGLKFEGETKDYPVPTSAKTIADGYRKVNTAFVEALQSEWTDKDLTTINDFFGRPMPNSIFLMTLINHQNHHRGQMTVLMRQAGLTVPGVYGPAKEEWATAGMEAPKM	not failed
MYQVIIFALLFAGISSGFITFRIMGMRMAPHFGVLILALIATAANIMSGNVTLNYVAVALQVLTGISAYTQFLPVLRDSFQTAPLYACHLSTVTVAAVLAAASVPL	failed
MYSGAYSFVQISTAAYRISITRLEKTMESLQQQVAQLLEQQPTLLPAAMAEQLNVTEFDIVHALPEEMVAVVDGSHAQTILESLPEWGPVTTIMTIAGSIFEVKAPFPKGKVARGYYNLMGRDGELHGHLKLENISHVALVSKPFMGRESHYFGFFTAQGENAFKIYLGRDEKRELIPEQVARFKAMQQQHKQLEHHHHHH	not failed
MYSGFTREKSDLRTEDVEITKEPFTLLIMGIEDYATDGQNGRTDSLMFATVNPKTQKISLMSIPRDSRVPIVGKNKEDKINAAHAYGGEEMAIKTVEGFLKVPVDHYVKIDFQGFKGIVDAVGGVTVDVPFDFWERSDVDYYKKIQFKQGQQELNGEEALAYVRMRKQDPNGDYGRAARQRQLLAAVAQKLNSTSTVFKIKDLTSVVGKYIKTDIPISDGLALYKKLSGFDPSTIQTLKLEGEDKKIGGIYYFLPDPNGVEAVRNEIKKELGLEHHHHHH	not failed
MYSMSMGERGEAPDGMSGVIRYESLLAARTMAQRQPKKSAGCADSVESFRNPKPKPRFDKDVFCKTSAIRRLRSDFLHGDGSRGTGRHRAVARGPDGVRLHPAGRQRPNLPVASSASRTRHDQGSGRMSVVSAIIGTAERVPLPDVVIRAAIQRLCSRTATRISALGADDEAAFAGRMMLRPIAEDVDAANAGHDEAPASFIAQALGPNRKYSSCFYTTDATTLREAEEEALRQTVAHAGLADGQTILELGCGWGSLSLWTARQFPHAKVTAVSNSQGQRAYVEEQARLRGLLNLRVVTADMNVFAPEGQFDRIVSVEMFEHVMNWRKLMTRLRSWLAPEGRLFMHIVTHRSGSHLFDRANREDWIAQHVFTGGLMASHHLVRQFDDIFTVEKEWCWSGTHYQRTANDWLANFDAHRDAIEASLRNVHGDETALWMRRWRWFFLATSGLFGYAGGTEWGVSHYRMKAADEGVS	failed
MYSPIPPSLFQQIQPAYCGQEFILLRDNEEYKEIIVQAGRTYEISLMVESENSYIAWDFSLTQGKITMVIIFKTKYVTVNHLIAFSDD	failed
MYTKTKASISALLILITITLSSCSGTKNKDIYSRKNSNAAHTVATIGYDNKTYVSLKEAFKSVGGKCTLNGEGAIASKGKDIIKVSASSSTAYLNSSKIAMSANPKLKNNDIYVPMDFLNQVMDARITYSNGKLNIQTELPLKYTKAFNIKYLKGGIKKITDGNNKTVILVPKNKTVPAEYKNETVITYPVNNVLVSSATQGSLLRPLDEIKSIKTVTLKENEWEIDEIKSLLNDNKITYIGDTTSPDFEKISSSKPDVAILYGGSYGLNNMMKKFDELHINYTSDNEYLEEDPLGRLEWIKFLSAFYDKEDKAENYFNQQVSKVMATENKVSSLKKPKVAFGMVDNGKVYIPAKNSYAAKMVDMAGGDYIFKDLNNKSGYITLEDFYSKSKDADVLIYSSSKEYTPSLKSMLSAAPILKTIKPVKNKKVWCFGKDYYQAIDKTDEIIEDLASIFHPESFKGYKIKHYSHY	failed
MYTNRWEGLDEFVAVAECGQFTAAALRLGVSSSHVSRQIVRLEERLQTRLLYRSTRKVALTEAGQTFLHHCQRLQDGREEALRAVGDLASEPKGLLRMTCAVAYGERFITPLVTRFMELYPQLRVDIELSNDTLDLVHEGMDLAIRLGRLQDSRMVATRLAPRQMYLCASPSYLERYGRPHSLSELSRHNCLIGGSDTWQLQQNGREFSQRVQGNWRCNSGQAVLDAALQGVGLCQLPDYYVQKHLKEGALVSLLEAHQPPNTAVWALYPQQRHLSPKVRKLVDYLKEGLAMQDEYRQ	failed
MYVLIGGAGLIGQQLARQVLDQGHTVAVIDQDPQVCKMVRDRLGAMAFEGSAVNTDILLEAGICRADAVAAVLRQDALNLALVTLACHYGVSRIISRISQQDFIEPMRLAGAHHIISTVDLVVSTMVNAIECPQVESMLHFEQGQIEVFKLTLDSQSPVIGRSVAAIAQDRNFPSSSLIIGYQSHPQADLVIPSGNTVLEANATVLLATKPGLVQSLVNFLMPSLFSPLEHHHHHH	failed
MYVLVSSPFHYKQFTKFTIFSVFAGFSFIQNELTTYWFFILLFRQEITLFGLGVIARPLVRVFVSYLMGYISDKYDRAKLFYITRGISGILLFPLTFAFIYHSIPLIFGIYYIRTIIVELSNNVGYVAYYAVVPEQVRAKAIFYIRIISMASRVASGAVWYLIYQLISAYDLFLAGILGLIGLALLKGFNIGGGSKRVKLSTAIDFFRKDERIRGIILLYSVTDGLTYSINYLLPLLIIVYHGTEEIYSLSQTVLYGILVIASFVMTRIKDPIKIVSTYILSGFLFYLVLLYPSPYVLLISVLLYGFGSGIVENYVMATIKQSVGDEFLGSVLGLDVLVTSSVEIFLILLGQYLITINVVYYIIVGIVGMSLVLISWLLHPKLKDIKL	failed
MYVTRRLSEYQKKPSELKLLPPEGPNSGIMVIQDEESQATCCFGSCYEGRLKGLPFPQNVKLNAAYTSGGGEHQTTHLTPVVFIPVLDQPLSSNLYYVLQRRGKHTGKASASATEEERVSSCFCFSYIPDAKPQEADPYDIYQQFEIHQRRSSSRYYSATSVASDGVPPNYLKRKDWWVSYSTSHDFGLRDDAKGINTKLRLDSELTSLGKSIEIGKWYVPFIFVMEGDVKDQMNKSTFYSVTLQQRWEEVFFCENIGNEHFEVVVDVDVETESVKLEGQETNLREDSGDGVVWFSVLRDEKDDKKIGLGSVVVERMKWEEERFGWLNEAGERSNIKRSERFEGGSSHWKSYRCYVLIESFELTRMDGSLVLTYEFRHVDKLKSKWD	failed
NDNSPRFEKSVYEADLAENSAPGTPILQLRAADLDVGVNGQIEYVFGAATESVRRLLRLDETSGWLSVLHRIDREEVNQLRFTVMARDRGQPPKTDKATVVLNIKDENDNVP	not failed
NENPDKPTDDVNYNMNEPRLASTLRGGLIIEGNVEQRLKPLQIDFYSQMTVDGGGWGTKNYIQDDEWNNLVWEEYLKQIASINIVIRSLTEKDKDAYANTIAFARIWRVYVHTLAADKFGPMPFPAYEIVEANPPYKSLKDIYDEYFRELDAAINGFNDSAQPIFSDAGIDLIYKNDVSKWKRFANSLRLRLAVRLTEVDQEKCIAEANAAISSPAGLISDKADNAYMPPKADGSWGQDYNYTMFQITWSGPICMSKSVEKLVTNIGGVAWPQGVVNQTSGVAVSSVHPEKVDPRAPKIFQPGIENGDWKGLVYGPKAEEANTGIYQSKQCAELGFIIKDGYPYKSRPYDLFLSEEVHFLKAELYARGFIAGDAKSEYEAGVRASFATWGVTSEVDDYLTSTEKNEAGTSARYDDQQGAGNTALEKIITQKYIAGIPDLAQEGWNDKRRLNLPRLDVAVYRDQAVYNNNDKDILKSANFIKRMRYPTKESLINATEYEKGKSMLGGKGDIVSTPLWWDKNSNYCTSSK	not failed
NGVWVIGEQREGKINPVTIELIGEGRKLADQLGKELAVVIAGYEVEKEVKELLHYSVDKVYYINDPLLKDFTTDGYAISIANLIERKKPEVVLVGATSIGRDIAPRIAGKVGTGLTADCTKLEIDSTDNKLLQTRPAFGGNLMATIVCPKNRPQMSTVRPGVMAKAVRNESETGILEVVTPELTEKMIRTRLVEILPQEKKSVN	not failed
NGYTMQRDNQKTLAVYMFEEINRDVEYLSGRLSEKELKDKYRYYGRGYVRITDKDGQVITYEDGSVQDKTVFLTNEGANKLGWKLEFLIDEKMFEEEILEKQN	not failed
NIVEWLGDRSLAVLAAIANKFRGSEQETLEPQLDEFVEDKVSTKHVEDDQQDDETLPHLTAYEVEEPKEKAAVHEYPIYMPQAKSETSAVKPTPEPQPQRVAAVNATPTYVEPEPQLKAVSTDNVDPMVERTKQLNVTIEELEAAAQQADDWASEEQTSQSYADTNAVYQEQVQAKHEEVVEHDTPQLESSYAEYAQFAAQQEQQLHVEPTPHEEPVIDTRALDDITDHAEPSEHIEPTISDFDVVDEEETYVAPQPQSRSPEPQPMVQPQSVSQIQPEQAPEPSVAFEPAPQEVEVEEVQDGDQDVAAFQSMVSSAQAKVAATQNPFLMKQEQNLPVPEEPLPTLELLYHPEKRENFIDREALEQVARLVESKLADYKIKADVVGIYPGPVITRFELDLAPGVKVSRISGLSMDLARALSAMAVRVVEVIPGKPYVGLELPNMSRQTVYLSDVISSPQFEQAKSPTTVVLGQDIAGEAVIADIAKMPHVLVAGTTGSGKSVGVNVMILSMLYKASPEDLRFIMIDPKMLELSIYEGIPHLLAEVVTDMKDASNALRWCVGEMERRYKLMSALGVRNVKGFNEKLKMAAEAGHPIHDPFWQEGDSMDTEPPLLEKLPYIVVVVDEFADLMMVVGKKVEELIARLAQKARAAGIHLILATQRPSVDVITGLIKANIPTRVAFTVSTKTDSRTILDQGGAESLLGMGDMLYLPPGSSHTIRVHGAFASDDDVHAVVNNWKARGKPNYIDEIISGDQGPESLLPGEQMESDEEMDPLFDQVVEHVVQSRRGSVSGVQRRFKIGYNRAARIVEQLEAQGIVSAPGHNGNREVLAPAPPKD	failed
NLKDVYVSIADYEGDEETAGFQEGVSMEVLERNPNGWWYCQILDGVKPFKGWVPSNYLEKKN	not failed
NPVILADLDDTLFQTRRKMVDELALAPYKTGALDRSLAPRSFMTQEQAMLVDWMLEHADLIPVTARGTEEMSRVTIPFHSWAITTHGAVVLTPEKVADEQWQHHITQSLTPYKQPLLRLQQSITQLMAERNIDGWARINYEYDDLPIYLVMKHNDSARLDELYAIGDEIEKIFSTKGFYIHRNSNNIAWLPEPIEKGKAVTYLLNKLKAERGVFPVIGFGDSLSDHRFMKLCN	not failed
NQLLGMHQIEKEMTQYFGIQRCIVVAGDSDIQKKVLSDFGDVLTNTLNLLLPNGENTIAVMGGTTMAMVAENMGSLETEKRHNLFVPARGGIGEAVSVQANSISAVMANKTGGNYRALYVPEQLSRETYNSLLQEPSIQEVLTLISHANCVVHSIGRALHMAARRKMSDDEMVMLKQKNAVAESFGYFFDEEGKVVYKIPRIGLQLKNLQEIPYVVAIAGGKTKAKAIRAYMKNAPKQTWLITDEAAANEILK	not failed
NQLLTQQANEDGLTKLFNRRYIDQKLDSMVAWHGRHHMPMAMILLDVDFFKPFNDNYGHIEGDRCLQAIANQLKATFCRSGEYVGRYGGEEFVVLLSSTDAQTAEREAERIQEAMYFLDYQHEFSSVANRVTVSQGVFVFQPTGKENQADLYATADRALYTSKSLGRNTYTMVNAS	not failed
NRDSLFNDPNAPVLGNPEGDVTVVEFFDYNCPYCRRAMAEVQGLVDADPNVRLVYREWPILGEGSDFAARAALAARQQGKYEAFHWALMGMSGKANETGVLRIAREVGLDTEQLQRDMEAPEVTAHIAQSMALAQKLGFNGTPSFVVEDALVPGFVEQSQLQDAVDRARKAA	not failed
NRLPDAVVTVYPTFNSLQMLAHALRMPYHDMRIVSLTGRPWHEFDRALIERAEKIGILTDHEHTPSAIAMRMLDYGYEDYTMSVGTRMGNPQEQCLDTFSLREAADRDFERPNCVILSATRPFVCSRAPLGLSESAFMPLNGRTKMITKMPFRLVSLSCLELHRASSFWDIGFCTGSVSIEAKLNFPHLHITAFEIRPEGAELMPVNSRRFGAPGIAYRIGDFMEEDISSLAPPDAVFIGGHGGRLVEMIAKVHSVMTKGGLLVFNSVSEESRHLFLTGIEACGMELLSSIRLTADGNNPIDILQARKKE	not failed

Source: a protein production outcome set (Wang et al. 2014)
